Source: patent US11260098B2, “Method for suppressing obesity or development of obesity” (priority 2014, dated 2022)

B1: nesfatin-1: satiety molecule generated by processing of the secretory protein nesfatin; human nesfatin-1 9,695 daltons (protein, UniProt P80303 25-106, looked up)
Nesfatin-1: VPIDIDKTKVQNIHPVESAKIEPPDTGLYYDEYLKQVIDVLETDKHFREKLQKADIEEIKSGRLSKELDLVSHHVRTKLDEL
modifications: Nesfatin-1
notes: satiety molecule generated by processing of the secretory protein nesfatin; human nesfatin-1 9,695 daltons

Tests used:
mice = assay: Conditioned taste aversion preference test; format: in vivo; conditions: i.p. 0.5 ml, dose giving about 1/2 food suppression (1/4 dilution, 1/16 dilution, undiluted filtrate), FIG. 14
Experimental: 8. […] To define whether the appetite-suppressing effects induced by the undiluted solution of liquid component, the residual liquid containing the >3,000 component, and the filtrated liquid containing the <3,000 component were non-specific, a conditioned taste aversive test (a conditioned taste aversion preference test) was carried out in mice. For 5 days, each of mice was adapted to two bottles containing water, allowing to the drinking schedule of 2 hours per day (10:00 am to 12:00). On Day 6 of the test, each mice was allowed to drink water for 30 minutes followed by installation of 2 bottles added with saccharine solution (0.15%). Thereafter, saline, the liquid components or lithium chloride (molecular weight: 42.4 daltons) solution, each in an amount of 0.5 ml, was intraperitoneally administered to mice (n=5), and the conditions were set up as the aversion learning of the taste against saccharine solution. Subsequently, each of mice was subjected to drink for 90 minutes using 2 botties with water. […] On Day 8 of the test, the animals were allowed to drink for 30 minutes using 2 bottles with either water or saccharine solution, and the preference ratio for drinking of saccharine solution (the amounts of saccharine solution intake÷the amounts of entire water intake for 2 bottles) was calculated. […] The data are expressed as mean value±standard deviation. […]

rat = conditions: centrally administered to the rat ventricle; cited from earlier work
[1] = intraperitoneal administration; cited from earlier work

| Molecule | preference intake of saccharine solution (mice) | food intake (rat) | appetite suppression [1] |
| --- | --- | --- | --- |
| [Cl-].[Li+] [lithium chloride] | significantly suppressed |  |  |
| B1 |  | significantly suppressed | induced appetite suppression in a dose-dependent manner |
